{"source": "patent US20250051455A1", "key": {"[1]": {"target": "recombinant soluble human HLA-G β2M MHC class I complex, monomer (human)", "assay": "SPR, reference antibody against monomeric wt HLA-G"}, "[2]": {"target": "recombinant soluble human HLA-G β2M MHC class I complex, monomer (human)", "assay": "competition ELISA, one antibody concentration; competitor coated ILT4-Fc"}, "[3]": {"target": "recombinant soluble human HLA-G β2M MHC class I complex, trimer (human)", "assay": "competition ELISA, one antibody concentration; competitor coated ILT4-Fc"}, "[4]": {"target": "recombinant soluble human HLA-G β2M MHC class I complex, dimer (human)", "assay": "competition ELISA, one antibody concentration; competitor coated ILT4-Fc"}, "[5]": {"target": "recombinant soluble human HLA-G β2M MHC class I complex, monomer (human)", "assay": "competition ELISA, one antibody concentration; competitor coated ILT2-Fc"}, "[6]": {"target": "recombinant soluble human HLA-G β2M MHC class I complex, trimer (human)", "assay": "competition ELISA, one antibody concentration; competitor coated ILT2-Fc"}, "[7]": {"target": "recombinant soluble human HLA-G β2M MHC class I complex, dimer (human)", "assay": "competition ELISA, one antibody concentration; competitor coated ILT2-Fc"}, "[8]": {"target": "human HLA-G expressed on cells (JEG3 natural; SKOV3 HLA-G+ and PA-TU-8902 HLA-G+ transfectants) (human) (UniProt P17693)", "assay": "flow cytometry, JEG3 cells pre-incubated with antibody (40 µg/ml final); competitor ILT2-Fc chimera"}, "[9]": {"target": "modified human HLA-G β2M MHC class I complex (HLA-G specific amino acids replaced by HLA-A consensus amino acids) (human)", "assay": "SPR, reference antibody against degrafted HLA-G"}}}
{"substance": "G233 (antibody)", "values": [{"measurement": "Kd", "setting": "[1]", "result": 20, "unit": "nM"}, {"measurement": "koff", "setting": "[1]", "result": 0.0037, "unit": "s⁻¹"}, {"measurement": "kon", "setting": "[1]", "result": 180000, "unit": "M⁻¹ s⁻¹"}, {"measurement": "t 1/2", "setting": "[1]", "result": 3, "unit": "min"}, {"measurement": "% inhibition of ILT4 binding", "setting": "[2]", "result": -898, "unit": "%"}, {"measurement": "% inhibition of ILT4 binding", "setting": "[3]", "result": 58, "unit": "%"}, {"measurement": "% inhibition of ILT4 binding", "setting": "[4]", "result": -20, "unit": "%"}, {"measurement": "% inhibition of ILT2 binding", "setting": "[5]", "result": 12, "unit": "%"}, {"measurement": "% inhibition of ILT2 binding", "setting": "[6]", "result": 3, "unit": "%"}, {"measurement": "% inhibition of ILT2 binding", "setting": "[7]", "result": -132, "unit": "%"}, {"measurement": "Inhibition of ILT2 binding to Jeg3 cells", "setting": "[8]", "result": -55.8, "unit": "%"}]}
{"substance": "MEM-G/11 (antibody)", "values": [{"measurement": "Kd", "setting": "[1]", "result": 12, "unit": "nM"}, {"measurement": "koff", "setting": "[1]", "result": 0.00085, "unit": "s⁻¹"}, {"measurement": "kon", "setting": "[1]", "result": 74000, "unit": "M⁻¹ s⁻¹"}, {"measurement": "t 1/2", "setting": "[1]", "result": 14, "unit": "min"}, {"measurement": "Kd", "setting": "[9]", "result": 13, "unit": "nM"}, {"measurement": "koff", "setting": "[9]", "result": 0.0012, "unit": "s⁻¹"}, {"measurement": "kon", "setting": "[9]", "result": 89000, "unit": "M⁻¹ s⁻¹"}, {"measurement": "t 1/2", "setting": "[9]", "result": 10, "unit": "min"}]}
{"substance": "MEM/G9 (antibody)", "values": [{"measurement": "Kd", "setting": "[1]", "result": 7.7, "unit": "nM"}, {"measurement": "koff", "setting": "[1]", "result": 0.0011, "unit": "s⁻¹"}, {"measurement": "kon", "setting": "[1]", "result": 150000, "unit": "M⁻¹ s⁻¹"}, {"measurement": "t 1/2", "setting": "[1]", "result": 10, "unit": "min"}, {"measurement": "Kd", "setting": "[9]", "result": 300, "unit": "nM"}, {"measurement": "koff", "setting": "[9]", "result": 0.036, "unit": "s⁻¹"}, {"measurement": "kon", "setting": "[9]", "result": 120000, "unit": "M⁻¹ s⁻¹"}, {"measurement": "t 1/2", "setting": "[9]", "result": 0.3, "unit": "min"}, {"measurement": "% inhibition of ILT4 binding", "setting": "[2]", "result": -14, "unit": "%"}, {"measurement": "% inhibition of ILT4 binding", "setting": "[3]", "result": -40, "unit": "%"}, {"measurement": "% inhibition of ILT4 binding", "setting": "[4]", "result": -44, "unit": "%"}, {"measurement": "% inhibition of ILT2 binding", "setting": "[5]", "result": -442, "unit": "%"}, {"measurement": "% inhibition of ILT2 binding", "setting": "[6]", "result": 4, "unit": "%"}, {"measurement": "% inhibition of ILT2 binding", "setting": "[7]", "result": 1, "unit": "%"}, {"measurement": "Inhibition of ILT2 binding to Jeg3 cells", "setting": "[8]", "result": -27.9, "unit": "%"}]}
